Reference: patent US20170157212

Tested on: purified recombinant CRIF1

**Q.** With HA-tagged full-length human CDK12 as the substance, how does the “CDK12-mediated phosphorylation of the human GST-CTD substrate in vitro (immunoblot, CTD-Ser2P)” value read?
**A.** recombinant CRIF1 potently inhibited CDK12-mediated phosphorylation of the human GST-CTD substrate in vitro, in a dose-dependent manner

**Q.** And the “S65 and T70 phosphorylation of recombinant 4E-BP1 in vitro (reactions with CDK12 and mTORC1/Raptor)” value?
**A.** rCRIF1 potently and selectively inhibited S65 and T70 phosphorylation of 4E-BP1 in vitro, in a dose-dependent manner, without affecting phosphorylation of the T37/46 sites by mTORC1
